Data reported in publication PMC3918160, “Biochemical studies of the multicopper oxidase (small laccase) from Streptomyces coelicolor using bioactive phytochemicals and site-directed mutagenesis” (Microbial Biotechnology, 2013).
Positions count from the first letter of the chain named. Names may count otherwise.

B1: small laccase (SLAC), SCO6712 (Streptomyces coelicolor A3(2)) (protein)
chain: AKGITARTAPAGGEVRHLKMYAEKLADGQMGYGFEKGKASVPGPLIEVNEGDTLHIEFTNTMDVRASLHVHGLDYEISSDGTAMNKSDVEPGGTRTYTWRTHKPGRRDDGTWRPGSAGYWHYHDHVVGTEHGTGGIRNGLYGPVIVRRKGDVLPDATHTIVFNDMTINNRKPHTGPDFEATVGDRVEIVMITHGEYYHTFHMHGHRWADNRTGILTGPDDPSRVIDNKITGPADSFGFQIIAGEGVGAGAWMYHCHVQSHSDMGMVGLFLVKKPDGTIPGYEPHEHGGATAKSGESGEPTGGAAAHEHEH
B2: small laccase (SLAC), SCO6712 (Streptomyces coelicolor A3(2); S292A) (protein)
chain: B1 chain with S259A

Tests used:
purified protein = substrate: O=c1c(O)c(-c2cc(O)c(O)c(O)c2)oc2cc(O)cc(O)c12; experiment: purified protein; settings: 60°C, optimal pH for the substrate, 5% (v/v) DMSO
[1] = substrate: COc1cccc(OC)c1O; experiment: initial rates, absorbance, Michaelis-Menten fit; format: biochemical, Streptomyces coelicolor; settings: 60°C, optimal pH for the substrate
[2] = substrate: O=c1c(O)c(-c2ccc(O)cc2O)oc2cc(O)cc(O)c12; experiment: initial rates, absorbance, Michaelis-Menten fit; format: biochemical, Streptomyces coelicolor; settings: 60°C, optimal pH for the substrate
[3] = substrate: CCn1c(=NN=c2sc3cc(S(=O)(=O)O)ccc3n2CC)sc2cc(S(=O)(=O)O)ccc21; experiment: initial rates, absorbance, Michaelis-Menten fit; format: biochemical, Streptomyces coelicolor; settings: 60°C, optimal pH for the substrate
[4] = substrate: O=c1c(O)c(-c2ccc(O)c(O)c2)oc2cc(O)cc(O)c12; experiment: initial rates, absorbance, Michaelis-Menten fit; format: biochemical, Streptomyces coelicolor; settings: 60°C, optimal pH for the substrate, 5% (v/v) DMSO

Protein | Km (purified protein) [µM] | kcat (purified protein) [s⁻¹] | Km ([1]; universal buffer) [µM] | Km ([2]; 5% (v/v) DMSO) [µM] | Km ([3]; universal buffer) [µM] | Km [4] [µM] | Km [1] [µM] | kcat [1] [s⁻¹] | Km ([2]; DMSO) [µM] | kcat ([2]; DMSO) [s⁻¹] | Km [3] [µM] | kcat [3] [s⁻¹]
B1 | 900 ± 300 | 8.1 ± 0.8 | 1100 ± 200 | 1500 ± 200 | 800 ± 100 | 1200 ± 400 |  |  |  |  |  | 
B2 |  |  |  |  |  |  | 120 ± 20 | 0.93 ± 0.02 | 1600 ± 400 | 4.0 ± 0.4 | 2400 ± 200 | 11.1 ± 0.3
